Source: publication PMC3515076

Biological target: T1, RIG-I (ΔCARDs 1-238) (human, UniProt O95786 239-925, del1-238)
T1 sequence: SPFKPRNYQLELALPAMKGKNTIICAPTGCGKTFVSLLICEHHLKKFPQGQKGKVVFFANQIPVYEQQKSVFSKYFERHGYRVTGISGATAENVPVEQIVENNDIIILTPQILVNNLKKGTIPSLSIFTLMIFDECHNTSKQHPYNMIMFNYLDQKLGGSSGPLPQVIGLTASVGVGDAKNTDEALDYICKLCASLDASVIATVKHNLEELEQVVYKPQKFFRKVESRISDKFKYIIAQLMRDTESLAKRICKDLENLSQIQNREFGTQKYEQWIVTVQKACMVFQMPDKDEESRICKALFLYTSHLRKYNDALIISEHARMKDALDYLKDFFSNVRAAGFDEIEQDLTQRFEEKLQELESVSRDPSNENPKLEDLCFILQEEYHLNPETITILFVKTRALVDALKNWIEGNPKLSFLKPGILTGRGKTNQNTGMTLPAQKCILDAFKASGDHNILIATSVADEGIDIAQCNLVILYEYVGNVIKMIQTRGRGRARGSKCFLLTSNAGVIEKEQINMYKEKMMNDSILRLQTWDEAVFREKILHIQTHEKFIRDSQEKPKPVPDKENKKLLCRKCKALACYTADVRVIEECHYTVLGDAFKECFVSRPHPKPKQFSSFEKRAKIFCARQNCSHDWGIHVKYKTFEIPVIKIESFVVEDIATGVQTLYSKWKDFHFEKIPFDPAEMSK
Assay: X-ray crystallography

GGCGCGGCUUCGGCCGCGCC (structured_RNA, 5' triphosphate) [5'ppp8L]
binding result: binds
